From patent US20250179176A1, “ANTI-TIGIT ANTIBODIES AND USES OF THE SAME” (ARCUS BIOSCIENCES, INC., priority 2022, published 2025)

Assays:
[1] = system: CD8+ T cells; test: Ki67 on circulating CD8+ T cells (whole blood flow cytometry); type: in vivo, human
Protocol: Quantitation of Ki-67, a nuclear protein associated with cell cycle, is a common method to evaluate cell proliferation, especially in human samples ex vivo.
Immune cell profiling was conducted in whole blood by flow cytometry. For patients enrolled in the study described in Example 5 or Example 6, Ki67 changes on CD8^+ T cells were evaluated in whole blood by similar methods. Extracellular staining cocktails which included (minimally) CD3, CD8, and CD56 antibodies were added to 500 ul of whole blood and incubated on ice for 30 minutes. These markers were used to identify CD8^+ T cells (CD3^+CD56^− CD8^+) in both studies. For patients in the study of Example 6, extracellular cocktails also included CD45RA, CD39, and CD103 antibodies to identify an antigen-experienced memory CD8^+ T cell population (CD3^+CD56^−CD8^+CD45RA^−CD39^+CD103^+). Following extracellular staining, all blood samples were fixed and lysed using 1×BD FACSLyse buffer for 20 minutes on ice and then stored at −80° C. for up to 6 weeks. Upon thawing, samples were centrifuged at 400×g for 5 min to remove the lysing solution, washed in PBS, and then fixed and permeabilized in 100 ul of 1×FoxP3 Fixation Buffer for 1 hour at room temperature. […] The maximum fold change observed with the first cycle of treatment (between C1D1 and C2D29) was also determined for Ki67 expression on CD8^+ T cells.

[2] = Phase 2 study in front-line NSCLC (ARC-7), safety
[3] = all domvanalimab containing arms, 74 participants, initial cutoff

Molecule | proliferating CD8+ T cells ([1]; patients of the Example 6 study, PD-L1hi NSCLC) | Any TEAEs Leading to Death ([2]; Table 4, initial cutoff) | SAE COVID-19, events ([2]; Table 7, initial cutoff) [n] | SAE COVID-19, subjects ([2]; Table 7, initial cutoff) | Any TEAEs Leading to Death ([2]; Table 10, later cutoff) | Any TEAEs Leading to Death, related to study treatment ([2]; Table 10, later cutoff) | Grade 5 TEAEs related to study treatment (per physician assessment) ([2]; safety population (149 patients)) | proliferative marker (Ki67) on circulating CD8+ T cells ([1]; patients of the Example 5 study) | fatal case of myocarditis related to study treatment ([2]; 74 participants, case received domvanalimab and zimberelimab) [%] | fatal case of pneumonitis related to study treatment ([2]; 74 participants, case received domvanalimab, zimberelimab and etrumadenant) [%] | TEAE leading to domvanalimab dose modification/interruption [2, 3] [%] | discontinued domvanalimab due to a TEAE [2, 3] [%] | participants with TEAE Grade ≥3 [2, 3] [%] | participants with TEAEs Grade ≥3 related to domvanalimab [2, 3] [%] | participants with at least 1 TEAE [2, 3] [%] | participants with serious adverse events [2, 3] [%] | participants with treatment related AE related to domvanalimab [2, 3] [%] | participants with treatment related SAEs [2, 3] [%]
zimberelimab: antagonistic PD-1 antibody, immune checkpoint inhibitor | Increases | 3 (8) n (%) | 0 | 0 n (%) | 3 (6.0) n (%) | 1 (2.0) n (%) | interstitial lung disease |  |  |  |  |  |  |  |  |  |  | 
domvanalimab: anti-TIGIT antibody with engineered IgG1 Fc, reduced FcγR binding; heavy chain SEQ ID NO: 12, light chain SEQ ID NO: 13 (antibody) heavy: EVQLVESGGGLVQPGGSLRLSCAASGFTFSNFGMHWVRQAPGKGLEWVAFISSGSSSIYYADTVKGRFTISRDNAKNSLYLQMNSLRAEDTAVYYCARMRLDYYAMDYWGQGTMVTVSSASTKGPSVFPLAPSSKSTSGGTAALGCLVKDYFPEPVTVSWNSGALTSGVHTFPAVLQSSGLYSLSSVVTVPSSSLGTQTYICNVNHKPSNTKVDKKVEPKSCDKTHTCPPCPAPEAAGGPSVFLFPPKPKDTLMISRTPEVTCWVDVSHEDPEVKFNWYVDGVEVHNAKTKPREEQYNSTYRWSVLTVLHQDWLNGKEYKCKVSNKALPAPIEKTISKAKGQPREPQVYTLPPSRDELTKNQVSLTCLVKGFYPSDIAVEWESNGQPENNYKTTPPVLDSDGSFFLYSKLTVDKSRWQQGNVFSCSVMHEALHNHYTQKSLSLSPGK light: DIQMTQSPSSLSASVGDRVTITCRASKSISKYLAWYQQKPGKAPKLLIYSGSTLQSGVPSRFSGSGSGTDFTLTISSLQPEDFATYYCQQHNEYPWTFGGGTKVEIKRTVAAPSVFIFPPSDEQLKSGTASWCLLNNFYPREAKVQWKVDNALQSGNSQESVTEQDSKDSTYSLSSTLTLSKADYEKHKVYACEVTHQGLSSPVTKSFNRGEC |  |  |  |  |  |  |  | increases | 1.3 | 1.3 | 27.0 | 4.0 | 45.9 | 10.8 | 93.2 | 25.6 | 56.7 | 8.3
